From paper PMC9436372 come the findings set out here.

This data set deals with T1, ATF3 (recombinant human) (Homo sapiens, UniProt P18847 1-181).
T1 sequence: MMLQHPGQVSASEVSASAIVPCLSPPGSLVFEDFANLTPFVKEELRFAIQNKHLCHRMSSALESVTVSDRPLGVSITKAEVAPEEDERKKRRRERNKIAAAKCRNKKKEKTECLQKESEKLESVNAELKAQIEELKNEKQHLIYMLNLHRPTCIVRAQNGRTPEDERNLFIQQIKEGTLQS
The data set is described as follows: EMSA. (In general: In EMSA bound probe runs differently from free probe, usually more slowly.)

B1: HyATF3-2 probe (dsDNA)
DNA 1: TTATGTTTACTGACGTTTCCCTGCCTTCTA
DNA 2: TAGAAGGCAGGGAAACGTCAGTAAACATAA
As to B1, the binding result was “binds”.

B2: HyATF3-1 probe (dsDNA)
DNA 1: GAAAAAAACGTCAGAAAACAAGTGACGTATTATA
DNA 2: TATAATACGTCACTTGTTTTCTGACGTTTTTTTC
Turning to B2, the binding result is on record as “binds”.
